Measured values reported in the supplement of paper PMC10724198.
± gives the standard deviation of the averaged measurements.

What was measured:
[1] = system: Saccharomyces cerevisiae; assay: protein stability index of tFT-peptide fusion (C-terminal peptide) (PSI (0-1 scale)); higher = more stable (slower turnover)
Experimental: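 MPS profiling in S. cerevisiae of the tFT-X12 degron library: putative degron peptides plus stable controls, 12 aa, fused to the C-terminus of a sfGFP-mCherry timer. Cells are FACS-sorted into 8 mCherry/sfGFP bins and deep-sequenced. PSI runs from 0 (unstable) to 1 (stable). Backgrounds are wild type, das1Δ and doa10Δ at 30 °C, and wild type, das1Δ, cdc34-1 and cdc53-1 at 37 °C; 2-3 technical replicates each.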

[2] = system: Saccharomyces cerevisiae; assay: as above; conditions: genetic background: wild type; temperature: 30 C
[3] = genetic background: cdc34-1, temperature: 37 C
[4] = genetic background: cdc53-1, temperature: 37 C
[5] = genetic background: das1 deletion, temperature: 30 C
[6] = genetic background: das1 deletion, temperature: 37 C
[7] = genetic background: doa10 deletion, temperature: 30 C
[8] = genetic background: wild type, temperature: 30 C
[9] = genetic background: wild type, temperature: 37 C
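Further: PSI is a weighted mean of sequencing reads over stability bins, variants kept only with over 10 reads, mCherry proximal and sfGFP distal, peptide attached via GGGS linker.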

Sequence	protein stability index [1, 3]	protein stability index [1, 4]	protein stability index [1, 5]	protein stability index [1, 6]	protein stability index [1, 7]	protein stability index [1, 8]	protein stability index [1, 9]	protein stability index [2]
WDPKISVFVLID	0.439 ± 0.056	0.53 ± 0.11	0.344 ± 0.024	0.55 ± 0.025	0.246 ± 0.013	0.291 ± 0.018	0.479 ± 0.0098	0.403 ± 0.0096
WFAHGLRHFRIL	0.653 ± 0.081	0.76058 ± 0.00075	0.661 ± 0.0098	0.742 ± 0.027	0.273 ± 0.016	0.299 ± 0.012	0.532 ± 0.034	0.375 ± 0.068
WFFLFGFVFFFR	0.36 ± 0.059	0.4002 ± 0.0035	0.352 ± 0.044	0.475 ± 0.019	0.433 ± 0.018	0.351 ± 0.039	0.4444 ± 0.0032	0.411 ± 0.077
WFGCSTVWVRVQ	0.286 ± 0.055	0.394 ± 0.0052	0.328 ± 0.037	0.502 ± 0.0075	0.0767 ± 0.0031	0.0787 ± 0.024	0.0591 ± 0.021	0.147 ± 0.0067
WFIPRSVCRWLF	0.515 ± 0.067	0.684 ± 0.028	0.611 ± 0.023	0.676 ± 0.033	0.0895 ± 0.017	0.0735 ± 0.026	0.116 ± 0.023	0.135 ± 0.0067
WFSAGSCRWVLC	0.58 ± 0.061	0.71 ± 0.023	0.543 ± 0.012	0.709 ± 0.013	0.126 ± 0.0071	0.1431 ± 0.00041	0.321 ± 0.027	0.24 ± 0.0076
WGAHRVRVSRIL	0.686 ± 0.034	0.768 ± 0.021	0.656 ± 0.028	0.742 ± 0.0081	0.295 ± 0.003	0.326 ± 0.043	0.516 ± 0.0052	0.509 ± 0.016
WLCVFVFGIFFV	0.146 ± 0.016	0.162 ± 0.01	0.179 ± 0.026	0.2894 ± 0.0021	0.292 ± 0.0061	0.186 ± 0.016	0.266 ± 0.0091	0.204 ± 0.016
WLFRCFLFVVGG	0.39 ± 0.025	0.441 ± 0.013	0.371 ± 0.025	0.46 ± 0.0069	0.413 ± 0.019	0.366 ± 0.016	0.4363 ± 0.0023	0.422 ± 0.0045
WLLVVCRGLVFR	0.227 ± 0.0051	0.228 ± 0.024	0.25 ± 0.036	0.4124 ± 0.0027	0.329 ± 0.023	0.236 ± 0.022	0.405 ± 0.018	0.319 ± 0.046
WQGWFLSLCIWV	0.2872 ± 0.0019	0.341 ± 0.0047	0.3 ± 0.031	0.404 ± 0.0047	0.317 ± 0.0065	0.296 ± 0.024	0.392 ± 0.025	0.348 ± 0.014
WQVPYQRLAILF	0.603 ± 0.021	0.656 ± 0.017	0.555 ± 0.03	0.681 ± 0.016	0.215 ± 0.017	0.247 ± 0.02	0.346 ± 0.011	0.309 ± 0.017
WRCLHLVYLFFH	0.395 ± 0.016	0.438 ± 0.036	0.365 ± 0.048	0.531 ± 0.047	0.192 ± 0.0042	0.173 ± 0.017	0.303 ± 0.013	0.286 ± 0.0091
WRVRFRLLAGFC	0.347 ± 0.038	0.4126 ± 0.0035	0.296 ± 0.021	0.421 ± 0.0046	0.073 ± 0.016	0.107 ± 0.027	0.206 ± 0.016	0.173 ± 0.018
WSFPFFLLPFLF	0.393 ± 0.0059	0.352 ± 0.0092	0.44 ± 0.022	0.5103 ± 0.0048	0.25 ± 0.0094	0.211 ± 0.014	0.305 ± 0.021	0.296 ± 0.034
WSFYVVGRLLVN	0.33 ± 0.031	0.383 ± 0.013	0.287 ± 0.024	0.45 ± 0.014	0.106 ± 0.0031	0.132 ± 0.0018	0.154 ± 0.015	0.124 ± 0.0045
WSHVPLAPLSCF	0.43 ± 0.017	0.442 ± 0.0048	0.337 ± 0.023	0.477 ± 0.0073	0.287 ± 0.0032	0.315 ± 0.023	0.42596 ± 0.00033	0.4567 ± 0.0039
WSVCLLLLGRFC	0.523 ± 0.013	0.604 ± 0.011	0.455 ± 0.026	0.617 ± 0.026	0.347 ± 0.0005	0.381 ± 0.024	0.554 ± 0.026	0.466 ± 0.018
WTRAHWFFQFFV	0.334 ± 0.061	0.677 ± 0.051	0.667 ± 0.018	0.739 ± 0.015	0.0772 ± 0.00094	0.0685 ± 0.0097	0.0858 ± 0.015	0.171 ± 0.0033
WVVVLFAYRGLR	0.57 ± 0.026	0.519 ± 0.12	0.362 ± 0.031	0.57 ± 0.038	0.323 ± 0.02	0.379 ± 0.037	0.559 ± 0.041	0.458 ± 0.088
WYMYVRMASFLV	0.534 ± 0.058	0.634 ± 0.05	0.489 ± 0.026	0.603 ± 0.018	0.302 ± 0.0084	0.287 ± 0.027	0.44 ± 0.0072	0.375 ± 0.026
YCDPSLIWLYLM	0.57 ± 0.012	0.714 ± 0.018	0.61 ± 0.021	0.727 ± 0.0077	0.1768 ± 0.0011	0.18 ± 0.012	0.275 ± 0.031	0.249 ± 0.02
YFICLSLVLFSY	0.163 ± 0.058	0.274 ± 0.05	0.215 ± 0.024	0.351 ± 0.032	0.202 ± 0.02	0.179 ± 0.03	0.306 ± 0.021	0.303 ± 0.069
YIILLSRKCAFC	0.573 ± 0.017	0.65 ± 0.013	0.51 ± 0.018	0.645 ± 0.015	0.401 ± 0.011	0.396 ± 0.024	0.586 ± 0.029	0.503 ± 0.017
YKLRAVFVCSVT	0.575 ± 0.06	0.6329 ± 0.0043	0.507 ± 0.021	0.6427 ± 0.0023	0.311 ± 0.018	0.34 ± 0.025	0.445 ± 0.028	0.392 ± 0.037
YLYSSSPWILHG	0.673 ± 0.011	0.748 ± 0.035	0.664 ± 0.015	0.748 ± 0.033	0.274 ± 0.027	0.287 ± 0.044	0.52 ± 0.023	0.383 ± 0.045
YTVRRVWLVRSR	0.445 ± 0.0056	0.521 ± 0.029	0.344 ± 0.032	0.5005 ± 0.0038	0.312 ± 0.012	0.325 ± 0.038	0.4934 ± 0.0033	0.423 ± 0.0074
YVGILCTGILTV	0.522 ± 0.024	0.54 ± 0.045	0.405 ± 0.026	0.564 ± 0.0085	0.38 ± 0.011	0.41 ± 0.017	0.549 ± 0.013	0.438 ± 0.0072
YVSSCLLWLCFV	0.484 ± 0.043	0.551 ± 0.018	0.421 ± 0.023	0.5591 ± 0.0006	0.28 ± 0.0085	0.287 ± 0.023	0.457 ± 0.011	0.376 ± 0.034
YYVIFHLFSFLI	0.427 ± 0.025	0.478 ± 0.0057	0.383 ± 0.033	0.533 ± 0.048	0.288 ± 0.0055	0.293 ± 0.022	0.493 ± 0.026	0.392 ± 0.094
